Laboratory results as given in the supplement of paper PMC10065799, “High-throughput profiling of sequence recognition by tyrosine kinases and SH2 domains using bacterial peptide display” (eLife, 2023).

Experiments:
AncSZ = assay: phosphorylation enrichment, bacterial display (enrichment ratio); higher = better substrate or ligand; peptides without Tyr show the background
Hck = Hck (UniProt P08631); assay: as above
MERTK = MERTK (UniProt Q12866); assay: as above
EPHB2 = EPHB2 (UniProt P29323); assay: as above
Fyn = Fyn (UniProt P06241); assay: as above
Sequence of Fyn (P06241 whole entry, looked up): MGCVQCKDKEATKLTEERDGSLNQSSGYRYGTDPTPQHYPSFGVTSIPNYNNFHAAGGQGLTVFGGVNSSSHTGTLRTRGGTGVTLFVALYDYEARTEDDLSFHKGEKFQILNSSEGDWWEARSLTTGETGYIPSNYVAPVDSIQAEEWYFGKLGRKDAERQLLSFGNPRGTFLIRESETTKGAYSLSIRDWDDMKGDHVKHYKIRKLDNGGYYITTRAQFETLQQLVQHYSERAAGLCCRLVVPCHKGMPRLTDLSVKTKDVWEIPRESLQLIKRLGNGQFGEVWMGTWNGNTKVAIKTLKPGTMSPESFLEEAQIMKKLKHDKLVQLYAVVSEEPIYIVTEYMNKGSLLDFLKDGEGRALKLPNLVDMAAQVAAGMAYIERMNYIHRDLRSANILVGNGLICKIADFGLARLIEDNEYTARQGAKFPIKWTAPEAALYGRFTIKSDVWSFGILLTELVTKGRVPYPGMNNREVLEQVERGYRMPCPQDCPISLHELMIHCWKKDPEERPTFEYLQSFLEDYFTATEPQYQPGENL

FGFR1 = FGFR1 (UniProt P11362); assay: as above
Sequence of FGFR1 (P11362 whole entry, looked up): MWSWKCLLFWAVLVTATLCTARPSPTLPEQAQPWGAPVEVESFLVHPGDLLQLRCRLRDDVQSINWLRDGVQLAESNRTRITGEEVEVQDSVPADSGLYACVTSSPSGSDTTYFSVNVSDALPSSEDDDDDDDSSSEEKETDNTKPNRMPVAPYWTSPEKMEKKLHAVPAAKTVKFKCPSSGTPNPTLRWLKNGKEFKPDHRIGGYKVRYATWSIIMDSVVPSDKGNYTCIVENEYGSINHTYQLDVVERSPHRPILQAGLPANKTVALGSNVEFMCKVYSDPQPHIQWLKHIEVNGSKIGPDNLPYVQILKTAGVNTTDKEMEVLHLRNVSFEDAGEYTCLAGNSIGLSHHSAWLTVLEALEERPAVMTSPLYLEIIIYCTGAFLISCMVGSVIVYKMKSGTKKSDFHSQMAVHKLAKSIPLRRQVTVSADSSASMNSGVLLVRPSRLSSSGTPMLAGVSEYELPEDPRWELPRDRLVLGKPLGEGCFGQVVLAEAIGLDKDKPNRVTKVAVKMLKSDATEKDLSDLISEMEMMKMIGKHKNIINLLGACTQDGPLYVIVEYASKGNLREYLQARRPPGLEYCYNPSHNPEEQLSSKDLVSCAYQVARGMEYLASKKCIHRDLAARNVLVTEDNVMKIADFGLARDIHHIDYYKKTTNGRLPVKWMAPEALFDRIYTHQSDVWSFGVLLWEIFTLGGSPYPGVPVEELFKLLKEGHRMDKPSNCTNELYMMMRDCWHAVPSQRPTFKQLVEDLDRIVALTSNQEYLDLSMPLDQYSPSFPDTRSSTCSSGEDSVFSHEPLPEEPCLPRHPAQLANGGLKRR

Fes = Fes (UniProt P07332); assay: as above
c-Src = assay: as above
Jak2 = Jak2 (UniProt O60674); assay: as above
Sequence of Jak2 (O60674 whole entry, looked up): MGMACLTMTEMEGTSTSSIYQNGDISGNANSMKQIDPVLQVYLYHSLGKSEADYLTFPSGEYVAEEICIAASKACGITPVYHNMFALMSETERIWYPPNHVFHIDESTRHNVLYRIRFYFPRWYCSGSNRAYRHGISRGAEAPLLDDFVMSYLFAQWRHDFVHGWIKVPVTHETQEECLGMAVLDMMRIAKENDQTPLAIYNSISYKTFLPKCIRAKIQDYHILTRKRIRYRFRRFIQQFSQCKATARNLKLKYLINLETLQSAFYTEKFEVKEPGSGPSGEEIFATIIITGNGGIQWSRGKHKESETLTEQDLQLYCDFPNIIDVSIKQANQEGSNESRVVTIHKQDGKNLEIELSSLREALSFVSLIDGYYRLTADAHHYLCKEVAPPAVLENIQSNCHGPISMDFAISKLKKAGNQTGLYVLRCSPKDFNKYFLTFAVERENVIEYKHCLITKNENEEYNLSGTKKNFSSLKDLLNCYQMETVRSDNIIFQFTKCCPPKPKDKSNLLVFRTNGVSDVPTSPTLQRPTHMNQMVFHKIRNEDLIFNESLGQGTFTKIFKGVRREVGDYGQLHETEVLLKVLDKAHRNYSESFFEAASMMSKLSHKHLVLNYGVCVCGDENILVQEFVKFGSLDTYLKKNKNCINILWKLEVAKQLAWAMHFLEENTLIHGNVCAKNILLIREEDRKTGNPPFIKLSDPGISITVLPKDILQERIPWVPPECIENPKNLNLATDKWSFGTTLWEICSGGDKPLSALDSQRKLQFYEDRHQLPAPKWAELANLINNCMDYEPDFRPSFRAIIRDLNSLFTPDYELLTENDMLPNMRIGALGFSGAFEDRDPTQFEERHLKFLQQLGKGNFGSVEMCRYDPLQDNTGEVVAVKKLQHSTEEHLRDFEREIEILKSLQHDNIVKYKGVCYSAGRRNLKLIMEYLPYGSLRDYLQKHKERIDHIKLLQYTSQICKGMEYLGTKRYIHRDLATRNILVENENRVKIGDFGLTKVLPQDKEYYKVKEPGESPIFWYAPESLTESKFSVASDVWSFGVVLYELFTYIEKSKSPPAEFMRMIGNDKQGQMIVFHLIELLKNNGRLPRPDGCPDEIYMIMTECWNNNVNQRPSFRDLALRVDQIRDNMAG

c-Abl (mouse) = assay: as above
FGFR3 = FGFR3 (UniProt P22607); assay: as above
Fer (mouse) = assay: as above
EPHB1 = EPHB1 (UniProt P54762); assay: as above
Sequence of EPHB1 (P54762 whole entry, looked up): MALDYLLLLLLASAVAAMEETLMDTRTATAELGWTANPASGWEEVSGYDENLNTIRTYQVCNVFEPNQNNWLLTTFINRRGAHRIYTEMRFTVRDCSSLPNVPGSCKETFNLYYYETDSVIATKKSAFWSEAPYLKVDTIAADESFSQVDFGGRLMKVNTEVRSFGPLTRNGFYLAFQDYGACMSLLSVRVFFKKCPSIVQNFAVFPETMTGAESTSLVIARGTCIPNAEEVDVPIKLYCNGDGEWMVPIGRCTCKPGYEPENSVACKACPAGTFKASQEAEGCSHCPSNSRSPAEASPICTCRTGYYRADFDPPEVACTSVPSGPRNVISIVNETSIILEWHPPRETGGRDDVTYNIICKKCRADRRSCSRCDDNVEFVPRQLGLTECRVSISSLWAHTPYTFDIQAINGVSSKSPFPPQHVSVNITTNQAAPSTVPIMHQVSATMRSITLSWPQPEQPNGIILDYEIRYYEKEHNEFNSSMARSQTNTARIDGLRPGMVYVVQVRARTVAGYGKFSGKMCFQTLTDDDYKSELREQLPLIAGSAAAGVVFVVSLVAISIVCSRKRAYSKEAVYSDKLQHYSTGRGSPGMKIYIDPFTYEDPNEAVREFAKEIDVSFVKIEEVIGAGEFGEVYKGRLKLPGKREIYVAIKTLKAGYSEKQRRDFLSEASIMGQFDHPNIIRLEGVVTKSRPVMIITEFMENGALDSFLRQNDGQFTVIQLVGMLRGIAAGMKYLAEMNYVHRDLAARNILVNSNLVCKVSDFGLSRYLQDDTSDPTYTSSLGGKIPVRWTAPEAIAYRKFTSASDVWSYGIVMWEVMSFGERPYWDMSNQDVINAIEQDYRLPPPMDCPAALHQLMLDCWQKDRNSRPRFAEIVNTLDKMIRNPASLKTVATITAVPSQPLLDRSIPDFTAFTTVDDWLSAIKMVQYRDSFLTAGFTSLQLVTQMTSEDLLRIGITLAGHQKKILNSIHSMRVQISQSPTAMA

SHP2-C SH2 = assay: SH2 binding enrichment of the phosphorylated peptide, bacterial display (enrichment ratio); higher = better substrate or ligand; peptides without Tyr show the background
c-Src SH2 = assay: as above
Grb2 SH2 = Grb2 SH2 (UniProt P62993); assay: as above
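Throughout, for SH2 binding enrichment of the phosphorylated peptide, bacterial display: peptide library displayed on the E. coli surface as eCPX fusions, selected cells deep-sequenced, score is each peptide's frequency after selection divided by its frequency in the input.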
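Throughout, for phosphorylation enrichment, bacterial display: 11-residue human phosphosite peptides and single-mutation variants displayed on the E. coli surface, counted by deep sequencing, each peptide's frequency after selection divided by its frequency in the unselected input library; frequency after pTyr selection over input frequency; kinase dosed for 20-30% of maximal phosphorylation in three min.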

Sequence of MERTK (Q12866 whole entry, looked up): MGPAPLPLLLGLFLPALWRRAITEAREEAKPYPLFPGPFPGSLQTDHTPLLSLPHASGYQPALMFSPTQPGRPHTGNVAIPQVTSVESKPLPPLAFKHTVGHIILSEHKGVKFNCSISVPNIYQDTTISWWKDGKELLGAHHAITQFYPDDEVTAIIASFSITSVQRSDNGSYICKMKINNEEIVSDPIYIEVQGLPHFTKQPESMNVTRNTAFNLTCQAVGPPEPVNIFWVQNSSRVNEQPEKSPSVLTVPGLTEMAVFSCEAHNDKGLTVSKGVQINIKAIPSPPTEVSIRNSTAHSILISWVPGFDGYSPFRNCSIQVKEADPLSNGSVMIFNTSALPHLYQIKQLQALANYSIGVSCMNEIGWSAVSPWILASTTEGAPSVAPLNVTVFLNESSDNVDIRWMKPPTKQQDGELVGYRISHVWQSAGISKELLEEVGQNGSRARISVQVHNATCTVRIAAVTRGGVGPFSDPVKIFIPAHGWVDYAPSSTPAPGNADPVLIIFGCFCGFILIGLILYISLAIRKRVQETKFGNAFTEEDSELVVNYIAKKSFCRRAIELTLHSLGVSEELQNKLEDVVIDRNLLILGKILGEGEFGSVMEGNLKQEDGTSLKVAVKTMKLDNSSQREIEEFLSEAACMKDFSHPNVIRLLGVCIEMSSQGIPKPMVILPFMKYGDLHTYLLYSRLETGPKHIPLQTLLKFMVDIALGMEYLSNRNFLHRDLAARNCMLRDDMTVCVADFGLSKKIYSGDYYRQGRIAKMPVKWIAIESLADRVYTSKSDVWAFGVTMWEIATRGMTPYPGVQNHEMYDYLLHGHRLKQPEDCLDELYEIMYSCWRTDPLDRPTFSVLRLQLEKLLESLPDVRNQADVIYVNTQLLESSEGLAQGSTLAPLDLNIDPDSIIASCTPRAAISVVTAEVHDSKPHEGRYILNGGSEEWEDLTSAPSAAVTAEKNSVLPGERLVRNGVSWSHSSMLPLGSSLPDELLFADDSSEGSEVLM
Sequence of Hck (P08631 whole entry, looked up): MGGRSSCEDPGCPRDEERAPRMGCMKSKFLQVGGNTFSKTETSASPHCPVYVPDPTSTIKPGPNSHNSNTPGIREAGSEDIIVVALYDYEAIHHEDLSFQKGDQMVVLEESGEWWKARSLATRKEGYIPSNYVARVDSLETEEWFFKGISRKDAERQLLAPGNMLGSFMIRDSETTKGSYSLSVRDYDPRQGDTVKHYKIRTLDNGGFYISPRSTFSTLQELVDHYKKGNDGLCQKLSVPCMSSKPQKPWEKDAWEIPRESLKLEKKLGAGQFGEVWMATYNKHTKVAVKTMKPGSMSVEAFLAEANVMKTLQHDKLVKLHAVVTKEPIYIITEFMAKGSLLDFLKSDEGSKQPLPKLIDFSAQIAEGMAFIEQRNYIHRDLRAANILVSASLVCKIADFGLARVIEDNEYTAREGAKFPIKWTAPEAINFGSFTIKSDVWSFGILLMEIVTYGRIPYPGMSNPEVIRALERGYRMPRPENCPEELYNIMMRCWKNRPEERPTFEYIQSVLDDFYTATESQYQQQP

Sequence	phosphorylation enrichment (AncSZ)	phosphorylation enrichment (Hck)	phosphorylation enrichment (MERTK)	phosphorylation enrichment (EPHB2)	phosphorylation enrichment (Fyn)	phosphorylation enrichment (FGFR1)	phosphorylation enrichment (Fes)	phosphorylation enrichment (c-Src)	phosphorylation enrichment (Jak2)	phosphorylation enrichment (c-Abl (mouse))	phosphorylation enrichment (FGFR3)	phosphorylation enrichment (Fer (mouse))	phosphorylation enrichment (EPHB1)	SH2 binding enrichment (SHP2-C SH2)	SH2 binding enrichment (c-Src SH2)	SH2 binding enrichment (Grb2 SH2)
TLQRMYGCDVG [HLA-B_Y123_S121R]	0.857	0.501	0.545	0.665	0.568	0.5	1.14	0.554	1	0.816	0.771	0.542	0.535	0.454	0.493	0.851
PVLSLYASGRT [ACTA1_Y145_A140P]	1.14	0.768	0.752	0.548	0.616	0.328	1.19	0.573	1.39	1.31	0.703	0.539	0.637	0.926	0.484	0.841
AIKSFYAALID [RYR1_Y2426_M2423K]	0.882	0.758	2.53	1.23	0.504	0.553	0.981	0.481	0.667	0.719	0.628	0.479	1.25	1.5	1.67	1.08
RKRQFYLFKGK [RSPO4_Y112_C107R_YF]	1.15	1.19	1.22	0.71	1.14	0.555	0.949	0.809	1.06	1.25	0.803	0.787	0.741	0.363	0.296	0.295
IEKLTYIDKWF [CPS1_Y872]	0.896	0.492	0.385	0.513	0.412	0.638	0.937	0.601	0.817	0.619	0.687	0.532	0.515	0.465	0.311	0.724
IYGASYVPFAA [RBM47_Y541]	0.701	7.75	6.3	0.861	10	0.78	0.687	6.94	2.11	9.26	0.708	7.91	0.67	0.649	0.553	0.616
GRDQPYSGTGD [TYRO3_Y828_A831T]	0.667	0.481	0.492	0.43	0.549	0.49	0.757	0.441	0.713	0.673	0.52	0.526	0.385	0.49	0.518	1.02
TKVVHYWKWIK [KLK2_Y249_R250W]	0.812	0.501	0.51	0.364	0.346	0.489	0.975	0.474	0.802	0.714	0.58	0.378	0.494	1.45	1.12	1.41
LPVHFYSHVEH [PYGM_Y204_G205S]	1.13	0.852	0.859	0.878	0.689	0.651	1.63	1.21	1.71	1.2	1.29	1.26	1.05	8.86	22.2	0.964
GGDGSYVSVPL [TNNI3K_Y425_S430L]	0.692	0.437	0.474	0.509	0.406	0.5	0.599	0.38	0.558	0.471	0.573	0.486	0.414	0.682	0.631	0.887
AIMSFYAALID [RYR1_Y2426]	1.15	0.574	0.74	0.667	0.506	0.417	1.48	0.513	1.56	1.02	0.988	0.69	1.13	1.47	0.778	0.978
HVKHNYECLVF [XRCC5_Y416_I412V_YF]	1.23	0.581	0.948	1.16	0.584	0.558	1.17	0.754	1.71	1.23	0.928	1.09	1.36	0.632	3.99	1.13
ERRLIYTSDPK [VPS13D_Y864]	0.563	0.39	0.444	0.431	0.444	0.486	0.64	0.437	0.586	0.472	0.372	0.43	0.307	0.663	0.507	0.872
SKHHLYSDLQT [PTCHD1_Y84_R82H]	0.487	0.985	2.23	0.389	0.505	0.55	0.786	0.634	0.887	0.51	0.589	1.91	0.462	0.966	10	1.06
NFFDLYGGEKF [PTPN11_Y66_D61N_YF]	0.91	3.54	0.437	0.634	1.79	0.419	1.02	2.73	0.826	0.581	0.61	0.553	0.518	0.827	0.641	1.02
VVKLTYNENDN [CAMKK2_Y183_A182T]	0.939	0.5	0.467	0.545	0.468	0.618	0.917	0.419	0.726	0.551	0.564	0.577	0.491	0.673	0.469	0.815
